The record followed here is PMC4721547, “Cyclophilin40 isomerase activity is regulated by a temperature-dependent allosteric interaction with Hsp90” (Bioscience Reports, 2015).

Test [1] addresses Cyclophilin 40 (human; pDEST14-6H-TEV-hCyp40) (human) (UniProt Q08752).
For test [2], the target named is T1, Cyclophilin 40 (human; pDEST14-6H-TEV-hCyp40) (human, UniProt Q08752 1-370).
T1 construct: Cyclophilin 40 (Cyp40, PPID), human; construct pDEST14-6H-TEV-hCyp40; Monomeric by dynamic light scattering; also called PPID; source: E. coli BL21 star (DE3), purified (IMAC, gel filtration on Superdex 200)
The experiment in a line: ITC; 500 uM SRMEEVD titrated into 7.7 uM Cyp40 in 15 x 2.5 ul aliquots; 50 mM Hepes pH 8, 100 mM sodium chloride, 1 mM DTT; 1:1 binding model; 10 °C. The conditions noted are these: both partners purified. A general note: ITC needs no label: the signal is the heat of the interaction.

Test [3] has as its target T1, Cyclophilin 40 (human; …). The experiment in a line: ITC; 500 uM SRMEEVD titrated into 7.7 uM Cyp40 in 15 x 2.5 ul aliquots; 50 mM Hepes pH 8, 100 mM sodium chloride, 1 mM DTT; 1:1 binding model; 30 °C (highest attainable temperature). The conditions noted are these: both partners purified.
The target of test [4] is T1, Cyclophilin 40 (human; …). Nature of the test: ITC; 500 uM SRMEEVD titrated into 7.7 uM Cyp40 in 15 x 2.5 ul aliquots; 50 mM Hepes pH 8, 100 mM sodium chloride, 1 mM DTT; 1:1 binding model; 20 °C (value told with Supplementary Figure S2). The conditions noted are these: both partners purified.

As a reminder, the Kd is the equilibrium constant for the complex coming apart. A low value points to a tighter complex.

T1 sequence (Q08752 whole entry): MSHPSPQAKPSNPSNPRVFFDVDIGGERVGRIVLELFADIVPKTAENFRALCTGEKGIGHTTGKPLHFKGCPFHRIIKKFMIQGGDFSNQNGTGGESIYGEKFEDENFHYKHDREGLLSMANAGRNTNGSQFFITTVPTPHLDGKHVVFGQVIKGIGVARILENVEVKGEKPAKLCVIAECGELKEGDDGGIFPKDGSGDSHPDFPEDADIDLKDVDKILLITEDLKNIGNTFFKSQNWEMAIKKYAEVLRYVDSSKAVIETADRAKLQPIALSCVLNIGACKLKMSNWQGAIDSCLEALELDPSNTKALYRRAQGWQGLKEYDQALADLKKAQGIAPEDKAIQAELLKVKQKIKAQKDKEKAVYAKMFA
Cyclophilin 40 (human; pDEST14-6H-TEV-hCyp40) (human), sequence (Q08752 whole entry): as above

On to GAAAEEVD [GAAAEEVD peptide (Hsp70 mutant C-terminal peptide)], for which the reduction of the PPIase activity of Cyp40 (10 nM) by 250 uM peptide, substrate Suc-A-A-P-F-p-NA, 10 °C in test [1] was > 30%.

For the molecule GPTIEEVD [GPTIEEVD peptide (Hsp70 wild-type C-terminal peptide)], the reduction of the PPIase activity of Cyp40 (10 nM) by 250 uM peptide, substrate Suc-A-A-P-F-p-NA, 10 °C in test [1] was > 30%. Regarding SRMEEVD (also called Hsp90 peptide; Hsp90 wt) [SRMEEVD peptide (Hsp90 wild-type C-terminal peptide)], the Kd was ~5 µM in test [2], ~25 µM in test [3] and 10.7 µM in test [4].
